Earlier results, collected in paper PMC2589311.
Read-outs that look alike come from different tables or passages of the source.

Legend:
[1] = biological target: IL-1 receptor (synovial cells) (Homo sapiens) (UniProt P14778)
[2] = biological target: second IL-1 receptor, 68 kDa (RAJI cells) (Homo sapiens) (UniProt P27930)
[3] = biological target: IL-1 receptor (synovial cells) (Homo sapiens) (UniProt P14778); remark: listed apart in the source

UniProt P14778, sequence (P14778 18-569): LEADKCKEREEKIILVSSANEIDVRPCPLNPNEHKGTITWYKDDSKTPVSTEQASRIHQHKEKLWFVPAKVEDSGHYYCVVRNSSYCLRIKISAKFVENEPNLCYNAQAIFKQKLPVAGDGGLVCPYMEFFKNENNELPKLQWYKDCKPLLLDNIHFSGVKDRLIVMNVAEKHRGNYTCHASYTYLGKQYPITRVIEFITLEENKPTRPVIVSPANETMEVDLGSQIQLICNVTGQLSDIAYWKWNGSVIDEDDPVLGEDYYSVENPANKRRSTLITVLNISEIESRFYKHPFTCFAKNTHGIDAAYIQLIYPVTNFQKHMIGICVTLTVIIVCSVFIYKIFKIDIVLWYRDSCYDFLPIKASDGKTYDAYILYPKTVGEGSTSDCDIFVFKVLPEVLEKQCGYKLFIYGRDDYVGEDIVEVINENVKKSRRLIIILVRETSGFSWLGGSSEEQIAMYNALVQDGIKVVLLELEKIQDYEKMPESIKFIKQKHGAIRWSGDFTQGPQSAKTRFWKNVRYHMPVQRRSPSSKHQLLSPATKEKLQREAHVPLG
UniProt P27930, sequence (P27930 14-398): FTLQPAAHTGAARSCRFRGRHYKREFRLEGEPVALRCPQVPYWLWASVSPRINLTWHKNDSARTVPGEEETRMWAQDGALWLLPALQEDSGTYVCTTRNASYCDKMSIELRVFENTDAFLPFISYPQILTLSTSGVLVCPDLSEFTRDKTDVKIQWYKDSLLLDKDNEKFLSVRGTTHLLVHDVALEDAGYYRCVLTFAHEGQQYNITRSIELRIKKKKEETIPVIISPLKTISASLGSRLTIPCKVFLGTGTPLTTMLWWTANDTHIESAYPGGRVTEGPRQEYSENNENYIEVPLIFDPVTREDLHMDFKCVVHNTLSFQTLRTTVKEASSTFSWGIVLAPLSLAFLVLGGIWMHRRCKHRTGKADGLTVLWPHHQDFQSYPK

Row | Kd [1] [nM] | Kd [2] [nM] | Kd [3] [pM] | Substance
1 | 0.066 | – | – | IL-1alpha (from UniProt P01583)
2 | – | 2.2 | 4 | IL-1beta (from UniProt P01584)
